Assay results from patent US20230066984A1, “New Carbon Glycoside Glycosyltransferase and Use Thereof” (CAS Center for Excellence in Molecular Plant Sciences, priority 2020, published 2023).
Positions count from the first letter of the chain named.

B1: TaCGT1-A: C-glycosyltransferase from wheat, SEQ ID NO: 8 (protein, listed as Triticum aestivum)
chain: MPTSGDGPTSQPHVVLLPSAGMGHLVPFSRLAVALSSAHGCDVSLVTVLPTVSSAESSHLEALFGAFPAVRRLEFHLADFDASEFPNADPFFLRFEAMRRSAPLLLGPLLARASATALVTDIALSSVVIPVAKQLRLPCYVLFTASAAMLSLCVHFPAYLDANGNGLVGDVDIPGVYQIPKASVPQALHDPKHLFTRQFVANGRELAKSDGVLVNSFDAFEPEAIAALREGAVSAAGFFPPVFSVGPLAPVSFPAGNNNRADYIQWLEAQPARSVVYVSFGSRKAVARDQLRELAAGLEASGHRFLWVVKSTVVDRDDDADLGELLGEGFLERVQGRGMVTKGWVEQEDVLKQESVGLFISHCGWNSVTEAAAGGLPVLAWPRFGDQRVNAGVVARSGLGVWVDSWSWEGEEGVVSGESIAEKVKAVMGDEIARNKAVSVRDAAAKAVADGGTSYRNLARFAQRCRDGRVRE
B2: Phyllostachys edulis (moso bamboo) C-glycosyltransferase PhCGT1, SEQ ID NO: 1 (Phyllostachys edulis) (protein)
chain: MPTSGGRTGDRPHVILLPSAGMGHLVPFSRLAVALSSGHGCDVSVVAVLPTVSAAESRHLQGLLDASPAVRRLDLHLAPFDESEFPGADPFFLRFEAMRRSAPLLGPLLADTGASALVTDIALASVVIPVAKEIHLPCYVLFTASAAMLSFCAYFPTYLDTNAGRVVGDVDIPGVYRIPKASIPQALHDPNHLFTRQFVANGQDLAKADGVLVNTFDALELEAVTALRQGSVAAGFPPVFSVGPLVTVNLPAGEAAKESGNDYMYWLDAQPAQSVVYVSFGSRKAISRDQVRELAIGLEASGQPFLWVVKSTVVDRDDSAELSELLGEGFLERVQGQGFVTKAWVEQEEVLKHESIGLFISHCGWNSVTEAAASGVPVLAWPRFGDQRVNAGVVARGGLGVWVERWSWEGEEDVVSGEEIAEKVKAVMADETVRKKAASVGEAAVKEFADGGTSYRSLTEFVRRCRDLAVLD
notes: pET28a (pCZ86), E. coli BL21(DE3) in fermentation; A1 assay uses crude enzyme supernatant
B3: Phyllostachys glauca (henon bamboo) C-glycosyltransferase PgCGT1, SEQ ID NO: 2 (Phyllostachys glauca) (protein)
chain: B2 chain with G6S, D10G, Q273R, D289N, I296V, P304R, G327D, Q337R, F339L, D413G
notes: A1 assay uses crude enzyme supernatant
B4: SbCGT2: C-glycosyltransferase from Sorghum, SEQ ID NO: 7 (protein)
chain: MAPSAMPASGDHTGATPHVVLLPSAGMGHLVPFARLAVALSEGHGCDVSFAAVLPTVSSAESRHLRALFAAAPAVRRLDFRLAPFDESQFPGADPFFLRFEALRRSAPLLGPLLDAAQASALVTDIVLASVVLPVAKARGVPCYVLFTSSAAMLSLCAYFPAHLDANAAAGGGRLGVGDVDIPGVYRIPKSSVPQALHDPKHLFTQQFVANGRGLVAADGILVNTFDAFEPDAITALRQGSVVSDFPPVFAVGPLQPVRFQVAEKPAHYMRWLSAQPARSVVYVSFGSRKAISTDQLRELAAGLEASGQRFLWVVKSTVVDRDDAADLADLLGDGFLERVQGRAFVTKGWVEQEEILQHGSVGLFISHCGWNSVTEAAAFGVPVLAWPRFGDQRVNAAVVARGGLGAWEERWTWDGEKGLVTGEEVAEKINAVVGNDVVARKAARVGDAAAAAAGKGGTSYQSLADFVGRCRDAGW
modifications: Sorghum bicolor
B5: TaCGT1-B: C-glycosyltransferase from wheat, SEQ ID NO: 9 (protein, listed as Triticum aestivum)
chain: MPTSGDGSGALPHVVLLPSAGMGHLVPFSRLAVSFSSSDHGCGVSVVTVLPTVSSAESAHLDALFGACPAVRRLDFHLARFDASEFPGADPFFLRFEAMRRSAPLLGPLLAGAGASALVTDIALASVVIPVARELRLPCYVLFTASAAMLSLCVHFPAYLDANAGGPVGDVDIPGVYRVPKASIPQALHHPEHLFTRQFVANGRELAKSDGLLVNSFDEFEPEAISALRDGSVAAGFPPVFSVGPLAPVSFSAGEPPENQADYMRWLEAQPTRSVVYVSFGSRKAISKDQLKELAVGLEASGHRFLWVVKSTVVDREDEAELSELLGEGFLERVHGRGMVTKGWVEQEEVLKQESIGLFISHCGWNSVTEAAANGLPVLAWPRFGDQRVNAGVVARSGLGVWEERWSWEGEEGVVSGENIAEKVKAVMADETVRNKAVSVQDAAAKAVADGGTSYRSLAQFVQRCRDLSVSK
B6: SbCGT1: C-glycosyltransferase from Sorghum, SEQ ID NO: 6 (protein)
chain: MAPPATKSLGELDGGARPHVMFIPSAGMGHLLPFFRVIAALAAHDVVDISVVTVLPTVSAAEADHFASLFAALPRVSRVDFHLLPFDASSEFPGHDPFLLRWEALRRSAHLFRPLIAGAAGPRVSAVVTDVTLTSHVIPIAKELGVQCHVLFVSCATMLSLAAYTPVHLDKKNKGEHGPGVGVGVGVGDVDIPGVRRIPQSYLPQPLLDLNKLFTKQFIDNGREIINADGFLVNTFDALEPVALAALRDGKVVAGFPPVYAIGPLRSKEEEATTGSPPVAWLDEQPARSVVYVAFGNRNAVSLEQIREIAAGLEASGCRFLWVLKTTTVDRDDTAELTDDVLGEGFLERVQGRGLVTKAWVDQEAVLKHASVGLFLSHSGWNSVTEAAAAGVPLLAWPRGGDHRVNATVVVSGGVGVWMEQWSWDGEDWLVTGEEIGKKVKEVMSDAAVRARATRTGEEAAKAVAEGGTSYRSMQKFISSLKAHCSP
modifications: Sorghum bicolor

Experiments:
[1] = In vitro functional identification of C-glycosyltransferases by HPLC, phloretin as glycosyl receptor; format: biochemical; settings: 0.1 mM phloretin, 0.3 mM UDP glucose, crude enzyme, 37° C., 2 h, HPLC (FIG. 1A)
Experimental: The recombinant plasmid was transformed into competent cells of Escherichia coli BL21 (DE3), and cultured overnight at 37° C. in solid LB medium (kanamycin 50 μg/mL). Single colony was transferred to a 2 mL LB liquid medium (containing 50 μg/ml kanamycin) and incubated overnight. The bacterial fluid was transferred to a new 100 ml LB liquid medium with antibiotics and incubated at 37° C. and 250 r/min until OD600 reached 0.5-0.6. The culture was cooled down to 16° C. in a water bath. Then inducer IPTG was added at a final concentration of 0.1 mM. The mixture was cultured at 16° C. for low temperature induction and 180 r/min for 20 h. The BL21(DE3) recombinant strain carrying the pET28a empty plasmid was used as a blank control, and the culture operation was the same as above. The bacteria were harvested by centrifugation (6000 r/min, 5 min), re-suspended in 1 mL of lysis buffer Buffer A (20 mM Tris-HCl, pH 8.0; 100 mM NaCl), and DNase was added to a final concentration of 5 μg/mL, Mg^2+ to a final concentration of 2 mM; protease inhibitor PMSF to a final concentration of 1 mM; the bacteria were incubated on ice for 30 min and then sonicated; refrigerated centrifugation (10,000 rpm, 30 min, 4° C.), filtered through a 0.2 µm filter membrane to obtain the supernatant crude enzyme solution, and added 20% glycerol for cryopreservation (−20° C.).
(§1) The in vitro enzyme catalytic assay system is 100 μL. The reaction system includes: 0.1 mM glycosyl receptor (phloretin or 2-hydroxynaringenin), 0.3 mM UDP glucose, 25 μL supernatant crude enzyme solution, and Buffer A is used to make up the volume to 100 μL, and react at 37° C. for 2 h. After the reaction was completed, an equal volume of methanol was added to terminate the reaction, and HPLC was used for product analysis. HPLC detection conditions: chromatographic column: reverse phase C18 column [SilGreen ODS column (ø 4.6×250 mm)], detection wavelength 280 nm; mobile phase: acetonitrile (0.1% formic acid)-water (0.1% formic acid) mixture gradient elution, with increased ratio from 5:95 to 100:0 within 0 to 20 min, and the flow rate was 1 mL/min.

[2] = substrate: O=C1C[C@@](O)(c2ccc(O)cc2)Oc2cc(O)cc(O)c21; test: in vitro kinetic parameters of C-glycosyltransferase PhCGT1 with 2-hydroxynaringenin (FIG. 5); format: biochemical; settings: other: PhCGT1; substrate 2-hydroxynaringenin; 37.0 °C
Experimental: as §1
(§2) The Km value is the substrate concentration when the enzymatic reaction presents half of its maximum reaction rate, and the lower the Km value, the higher the enzymatic activity of the C-glycosyltransferase.

[3] = substrate: O=C1C[C@@](O)(c2ccc(O)cc2)Oc2cc(O)cc(O)c21; test: in vitro kinetic parameters of C-glycosyltransferase PgCGT1 with 2-hydroxynaringenin (FIG. 5); format: biochemical, henon bamboo (Phyllostachys glauca); settings: other: PgCGT1; substrate 2-hydroxynaringenin; 37.0 °C
Experimental: as §1, §2

| Molecule | 5′ C-glycosylation of 3′-glycosylated phloretin giving phloretin-3′,5′-C-diglucoside [1] | conversion of substrate phloretin to C-glycosylated product (Nothofagin) [1] | Km [2] [µM] | Km [3] [µM] |
| --- | --- | --- | --- | --- |
| B1 | can catalyze the glycosylation of the 3′-glycosylated phloretin at the 5′ position | can convert the substrate phloretin to a product having a shorter retention time |  |  |
| B2 |  | can convert the substrate phloretin to a product having a shorter retention time | 1.75 ± 0.66 |  |
| B3 |  | can convert the substrate phloretin to a product having a shorter retention time |  | 2.75 ± 0.75 |
| B4 |  | can convert the substrate phloretin to a product having a shorter retention time |  |  |
| B5 |  | can convert the substrate phloretin to a product having a shorter retention time |  |  |
| B6 | can catalyze the glycosylation of the 3′-glycosylated phloretin at the 5′ position | can convert the substrate phloretin to a product having a shorter retention time |  |  |
